Data taken from US20080076708A1.

Molecular target: Recombinant human Interleukin-18 (r-hIL-18) (human) (UniProt Q14116)
Assay: cell-based or functional assay

Sequence of Recombinant human Interleukin-18 (r-hIL-18) (human) (Q14116 37-193 limits assumed): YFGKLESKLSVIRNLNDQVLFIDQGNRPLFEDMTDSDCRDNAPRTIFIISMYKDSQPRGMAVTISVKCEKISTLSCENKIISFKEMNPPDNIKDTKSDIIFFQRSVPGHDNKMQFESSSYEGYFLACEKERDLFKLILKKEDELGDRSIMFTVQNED

| Biological activity U/mL (KG-1 cells in vitro bioassay; bulk ILNCT23) [U/mL] | Biological activity U/mL (KG-1 cells in vitro bioassay; bulk ILNCT24) [U/mL] | Specific activity U/mg (KG-1 cells in vitro bioassay; bulk ILNCT23) [U/mg] | Specific activity U/mg (KG-1 cells in vitro bioassay; bulk ILNCT24) [U/mg] | Biological activity U/mL (KG-1 cells in vitro bioassay; bulk ILNCT19) [U/mL] | Biological activity U/mL (KG-1 cells in vitro bioassay; bulk ILNCT20) [U/mL] | Biological activity U/mL (KG-1 cells in vitro bioassay; bulk ILNCT21) [U/mL] | Biological activity U/mL (KG-1 cells in vitro bioassay; bulk ILNCT22) [U/mL] | Specific activity U/mg (KG-1 cells in vitro bioassay; bulk ILNCT19) [U/mg] | Specific activity U/mg (KG-1 cells in vitro bioassay; bulk ILNCT20) [U/mg] | Specific activity U/mg (KG-1 cells in vitro bioassay; bulk ILNCT21) [U/mg] | Specific activity U/mg (KG-1 cells in vitro bioassay; bulk ILNCT22) [U/mg] | Substance |
| --- | --- | --- | --- | --- | --- | --- | --- | --- | --- | --- | --- | --- |
| 1.2e+06 | 1.01e+06 | 19800 | 17900 |  |  |  |  |  |  |  |  | r-hIL-18BP bulks ILNCT23 and ILNCT24 (from UniProt O95998 31-194) |
|  |  |  |  | 949000 | 1.23e+06 | 1.28e+06 | 1.35e+06 | 15400 | 21400 | 20400 | 22500 | truncated form of r-hIL-18BP (serum-free produced drug substance batches ILNCT19-22) (from UniProt O95998 46-194) |
